These results are taken from patent US20210246224A1 (Regeneron, published 2021).

Sequences and labels used below:
B1: H4H25014D (bispecific antibody, IgG4, V domains shown)
VH 1: QVQLQESGPGLVKPSQTLSLTCTVSGGSISSGHYFWSWIRQHPGKGLEWIGYIFYSGSTHYNPSLKSRLSISVDTSKNQFSLRLTSVTAADTAVYYCAREEGDYNFWDVDYVPGHFDYWGQGTLVTVSS
VH 2: EVQLVESGGGLVQPGGSLRLSCAASGFTFSTYVMSWVRQAPGKGPEWVSGISGRTGTTYYADSVKGRFTISRDNSKNTLYLQMNSLRAEDTAVYYCASRITAAGRGYYYYYGMDVWGRGTTVTVSS
VL: not shown
notes: Wild-type kappa CL and a modified (chimeric) IgG4 CH domain as set forth in US20140243504A1; also called bispecific anti-HER2xAPLP2 antibody
B2: H4H25020D (bispecific antibody, IgG4, V domains shown)
VH 1: B1 VH 1
VH 2: QVQLVQSGVEVKKPGASVKVSCKASGYTFTDYGISWVRQAPGQGLEWMGWISAHNGNTNYAQKLQGRVTMTTDTSTNTAYMELRSLRSDDTAVYYCARRNWKYFDYWGQGTLVTVSS
VL: not shown
notes: as for B1
B3: H4H25018D (bispecific antibody, IgG4, V domains shown)
VH 1: B1 VH 1
VH 2: EVQLVESGGGLVQPGRSLRLSCVASGFTFADYAMHWVRQAPGKGLEWVSGISWNSGNIDYADSVKGRFTISRDNAKNSLYLQMNSLRTEDTALYYCAKVRIVVAGYYYYYYGMDVWGQGTTVTVSS
VL: not shown
notes: as for B1
B4: H4H25019D (bispecific antibody, IgG4, V domains shown)
VH 1: QVQLVQSGPEVKKPGASVKVSCKASGYTFPNFGISWVRQAPGQGLEWMGWIAPYNVATNYAPKLQGRVTMTTDTSTSTAYMELRSLRSDDTAVYYCARWGAGYMGYYYYGMDVWGQGTTVTVSS
VH 2: B3 VH 2
VL: not shown
notes: as for B1
B5: H4H25021D (bispecific antibody, IgG4, V domains shown)
VH 1: B4 VH 1
VH 2: B2 VH 2
VL: not shown
notes: as for B1

The target in the first test is T1, human HER2 expressed on cells (cancer cell lines and normal primary cultures) (human, UniProt P04626 23-1255).
T1 construct: Endogenous HER2 of the cell lines; the same cells also express APLP2; also called human epidermal growth factor receptor 2
Nature of the test: imaging, Alexa647-labelled antibody 10 ug/mL at 4 C on MDA-MB-361 cells; signal per nuclei, normalised to the highest cell line. On the procedure:
(§1) After, cells were washed twice with cold DMEM+10% FBS. […] After, the solution was replaced with DPBS/CM. Binding of the bispecific antibodies to each of the cell types was measured using an Image Xpress^Micro automatic microscope (Molecular Devices). […] (See also FIG. 2.)
(§2) The signal of antibody binding (mean intensity fluorescence of Alexa647) divided by the nuclei signals was determined for each condition using MetaXpress software (Molecular Devices). Values were normalized to the cell line displaying the highest antibody binding signal.
B1: the “Antibody bound (% of highest)” value turned out to be 30%.

Take B2: the “Antibody bound (% of highest)” value worked out at 27%.

Consider B3, for which the “Antibody bound (% of highest)” value was 30%.

Take B4: the “Antibody bound (% of highest)” value worked out at 32%.

In the case of B5, the “Antibody bound (% of highest)” value stood at 37%.

In the next test the target is T1, human HER2 expressed on cells (cancer …). Description: imaging, Alexa647-labelled antibody 10 ug/mL at 4 C on MDA-MB-453 cells; signal per nuclei, normalised to the highest cell line. The procedure: as §1, §2
B1: the “Antibody bound (% of highest)” value came to 25%.

Turning to B2, the “Antibody bound (% of highest)” value was determined as 24%.

B3: the “Antibody bound (% of highest)” value was 25%.

B4: the “Antibody bound (% of highest)” value amounted to 30%.

On to B5, for which the “Antibody bound (% of highest)” value was 28%.

A further test shares this target. Nature of the test: imaging, Alexa647-labelled antibody 10 ug/mL at 4 C on MDA-MB-468 cells; signal per nuclei, normalised to the highest cell line. The procedure:
as §1, §2
For the molecule B2, the “Antibody bound (% of highest)” value amounted to 1%.

On to B3, for which the “Antibody bound (% of highest)” value amounted to 1%.

Take B4: the “Antibody bound (% of highest)” value is 1%.

As to B5, the “Antibody bound (% of highest)” value stood at 1%.

Another test has the same target. Description: imaging, Alexa647-labelled antibody 10 ug/mL at 4 C on MCF7 cells; signal per nuclei, normalised to the highest cell line. The procedure:
as §1, §2
Consider B1, for which the “Antibody bound (% of highest)” value came out at 5%.

Regarding B2, the “Antibody bound (% of highest)” value worked out at 5%.

As to B3, the “Antibody bound (% of highest)” value turned out to be 6%.

Turning to B4, the “Antibody bound (% of highest)” value stood at 7%.

For B5, the “Antibody bound (% of highest)” value was found to be 7%.

The next test shares this target. Description: imaging, Alexa647-labelled antibody 10 ug/mL at 4 C on SKBR3 cells; signal per nuclei, normalised to the highest cell line. On the procedure: (§3) To test the ability of bispecific anti-HER2xAPLP2 molecules described herein to bind to cells lines expressing various levels of HER2, a high content imaging assay was performed. […] Cells were plated on collagen-coated, black wall, 96-well, optical plates (Greiner, Cat #655936) at 2.5×10⁵ cells per well in their appropriate culture media, which is described for each cell line/culture in Table 6, and incubated overnight at 37° C. in 5% CO₂.
as §1, §2
On to B1, for which the “Antibody bound (% of highest)” value was 100%.

As to B2, the “Antibody bound (% of highest)” value was 100%.

As for B3, the “Antibody bound (% of highest)” value turned out to be 100%.

With B4, the “Antibody bound (% of highest)” value was determined as 100%.

Turning to B5, the “Antibody bound (% of highest)” value was 100%.

The target in another test is T2, human APLP2 extracellular domain expressed with a C-terminal myc-myc-hexahistidine tag (human, UniProt Q06481 32-692).
T2 construct: also called hAPLP2-MMH; APLP2.mmh
T2 sequence (Q06481 other isoform, or with tags, fused parts or gaps): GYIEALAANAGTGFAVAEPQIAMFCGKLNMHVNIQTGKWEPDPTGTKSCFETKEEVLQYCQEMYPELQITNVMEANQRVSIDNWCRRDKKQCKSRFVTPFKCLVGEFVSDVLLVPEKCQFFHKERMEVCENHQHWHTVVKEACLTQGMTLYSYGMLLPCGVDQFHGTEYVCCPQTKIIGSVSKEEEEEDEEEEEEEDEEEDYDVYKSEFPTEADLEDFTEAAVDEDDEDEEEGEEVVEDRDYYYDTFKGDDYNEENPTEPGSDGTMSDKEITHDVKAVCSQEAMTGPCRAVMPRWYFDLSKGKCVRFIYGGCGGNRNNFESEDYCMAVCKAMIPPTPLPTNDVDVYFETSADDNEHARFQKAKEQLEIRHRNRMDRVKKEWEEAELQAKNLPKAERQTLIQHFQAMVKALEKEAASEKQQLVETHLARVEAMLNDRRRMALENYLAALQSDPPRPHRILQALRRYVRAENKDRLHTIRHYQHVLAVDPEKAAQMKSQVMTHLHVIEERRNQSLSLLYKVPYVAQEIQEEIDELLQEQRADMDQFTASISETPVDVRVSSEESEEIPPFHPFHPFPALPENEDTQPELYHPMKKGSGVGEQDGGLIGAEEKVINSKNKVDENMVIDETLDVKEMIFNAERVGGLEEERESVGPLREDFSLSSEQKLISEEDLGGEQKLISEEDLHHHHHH
Nature of the test: SPR (Biacore 4000), antibody captured on anti-human Fc, hAPLP2-MMH injected, 37 C. On the procedure: (§4) Equilibrium dissociation constants (KD values) for HER2 and APLP2 binding to purified anti-HER2xAPLP2 bispecific and parental antibodies were determined using a real-time surface plasmon resonance biosensor using a Biacore 4000 instrument. The Biacore sensor surface was first derivatized by amine coupling with a monoclonal mouse anti-human Fc antibody (GE, Cat #BR-1008-39) to capture anti-HER2xAPLP2 bispecific monoclonal antibodies. […] Kinetic association rate constant (ka) and dissociation rate constant (kd) were determined by fitting the real-time sensorgrams to a 1:1 binding model using Scrubber 2.0c curve fitting software. Binding dissociation equilibrium constants (KD) and dissociative half-lives (t1/2) were calculated from the kinetic rate constants as: […]
B1: the “100 nM hAPLP2-MMH Bound (RU)” value came to 23 RU, the Kd came out at 235 nM and the t½ is 1.1 min.

For the molecule B2, the “100 nM hAPLP2-MMH Bound (RU)” value was determined as 30 RU, binding was characterised by a dissociation constant (Kd) of 844 nM and the t½ turned out to be 0.03 min.

For B3, the “100 nM hAPLP2-MMH Bound (RU)” value stood at 49 RU, the dissociation constant (Kd) was 145 nM and the t½ worked out at 1.2 min.

In the case of B4, the “100 nM hAPLP2-MMH Bound (RU)” value is 48 RU, the Kd was 183 nM and the t½ amounted to 1.1 min.

In the case of B5, the “100 nM hAPLP2-MMH Bound (RU)” value was found to be 24 RU, the Kd worked out at 976 nM and the t½ stood at 0.04 min.

The target in another test is T1, human HER2 expressed on cells (cancer …). Description: imaging, Alexa647-labelled antibody 10 ug/mL at 4 C on NBE cells; signal per nuclei, normalised to the highest cell line. On the procedure:
as §1, §2
As for B1, the “Antibody bound (% of highest)” value worked out at 5%.

With B2, the “Antibody bound (% of highest)” value worked out at 8%.

In the case of B3, the “Antibody bound (% of highest)” value worked out at 9%.

For B4, the “Antibody bound (% of highest)” value was 6%.

For B5, the “Antibody bound (% of highest)” value is 8%.

The target is the same in another test. Nature of the test: imaging, Alexa647-labelled antibody 10 ug/mL at 4 C on JIMT-1 cells; signal per nuclei, normalised to the highest cell line. On the procedure:
as §1, §2
Take B1: the “Antibody bound (% of highest)” value came to 17%.

B2: the “Antibody bound (% of highest)” value is 18%.

Turning to B3, the “Antibody bound (% of highest)” value came out at 17%.

As to B4, the “Antibody bound (% of highest)” value amounted to 15%.

In the case of B5, the “Antibody bound (% of highest)” value was found to be 17%.

The target is the same in a further test. Description: imaging, Alexa647-labelled antibody 10 ug/mL at 4 C on NLE cells; signal per nuclei, normalised to the highest cell line. The procedure: as §1, §2
On to B1, for which the “Antibody bound (% of highest)” value was 4%.

As to B2, the “Antibody bound (% of highest)” value was 6%.

With B3, the “Antibody bound (% of highest)” value amounted to 3%.

Regarding B4, the “Antibody bound (% of highest)” value was 2%.

As to B5, the “Antibody bound (% of highest)” value worked out at 7%.

The target of a further test is T2, human APLP2 extracellular domain …. Description: SPR, antibody captured, hAPLP2-MMH injected, 25 C.
Turning to B1, the “90 nM hAPLP2-MMH Bound (RU)” value stood at 17.1 RU, the Kd amounted to 9.98 nM and the t½ turned out to be 12.2 min.

In the case of B3, the “90 nM hAPLP2-MMH Bound (RU)” value was found to be 30.2 RU; the affinity, expressed as Kd, was 15.6 nM; the t½ was 6.8 min.

Consider B4, for which the “90 nM hAPLP2-MMH Bound (RU)” value was determined as 30.6 RU, the Kd worked out at 14.6 nM and the t½ is 8.7 min.

The target of another test is T1, human HER2 expressed on cells (cancer …). Nature of the test: imaging, Alexa647-labelled antibody 10 ug/mL at 4 C on T47D cells; signal per nuclei, normalised to the highest cell line. On the procedure:
as §1, §2
Take B1: the “Antibody bound (% of highest)” value was 6%.

Regarding B2, the “Antibody bound (% of highest)” value was determined as 5%.

As to B3, the “Antibody bound (% of highest)” value is 5%.

B4: the “Antibody bound (% of highest)” value amounted to 9%.

Consider B5, for which the “Antibody bound (% of highest)” value is 8%.

For the next test, the target named is T3, human HER2 extracellular domain expressed with a C-terminal myc-myc-hexahistidine tag (human, UniProt P04626 23-652).
T3 construct: also called hHER2-MMH; HER2.mmh
Nature of the test: SPR (Biacore 4000), antibody captured on anti-human Fc, hHER2-MMH injected, 37 C. The procedure:
as §4
In turn, B1 yielded a Kd of 3.37 nM and a t½ of 16 min.

Turning to B2, the affinity, expressed as Kd, was 4.2 nM.

For B3, the Kd is 4.21 nM.

Take B4: the t½ turned out to be 11 min.

In another test the target is T2, human APLP2 extracellular domain …. Description: SPR, antibody captured, hAPLP2-MMH injected, 25 C (second row for this antibody).
On to B3, for which the Kd amounted to 16.6 nM and the t½ was 7.7 min.

For the molecule B4, the Kd was determined as 17.2 nM and the t½ worked out at 6.7 min.

Another test addresses T1, human HER2 expressed on cells (cancer …). Nature of the test: imaging, Alexa647-labelled antibody 10 ug/mL at 4 C on BT483 cells; signal per nuclei, normalised to the highest cell line. The procedure: as §3, §1, §2
B2: the “Antibody bound (% of highest)” value amounted to 15%.

Consider B3, for which the “Antibody bound (% of highest)” value stood at 16%.

Take B4: the “Antibody bound (% of highest)” value turned out to be 22%.

Take B5: the “Antibody bound (% of highest)” value came to 22%.
